# Reference: patent publication US10450368
# pKd: −log10 of the molar value.
# How the values were obtained:
# CH505.M10D8gp120 [1] = test: direct-binding ELISA
# CH505.M11D8gp120/293F [2] = test: direct-binding ELISA
# CH505.M21D8gp120/293F [3] = test: direct-binding ELISA
# CH505.M5D8gp120293F [4] = test: direct-binding ELISA
# [5] = target: CH505.TF mutant gp120 M20 (HIV-1); test: direct-binding ELISA
# [6] = target: CH505.TF mutant gp120 M8 (HIV-1); test: direct-binding ELISA
# CH505.M9D8gp120/293F [7] = test: direct-binding ELISA
# CH505.M19D8gp120 [8] = test: direct-binding ELISA
# CH505.M7D8gp120/293F [9] = test: direct-binding ELISA
# [10] = target: CH505.TF mutant gp120 M6 (HIV-1); test: direct-binding ELISA
# [11] = target: HIV-1 CH505 transmitted/founder gp120 Env (HIV-1); test: SPR, antibody captured on anti-human Ig Fc, gp120 injected
# CH505w030.20D8gp120/293F = test: ELISA
# CH505w020.14D8gp120 = test: ELISA
# CH505w136.B18D8gp120 = test: ELISA
# CH0505_CON D7gp120/293i = test: ELISA
# CH505.w30.12D8gp120 = test: ELISA
# Scl-70 [12] = target: Scl-70 (UniProt P11387); test: AtheNA, Ab 12.5 ug/ml
# SSB [13] = target: SSB (UniProt P05455); test: AtheNA, Ab 12.5 ug/ml
# Centromere B [14] = target: Centromere B (UniProt P07199); test: AtheNA, Ab 12.5 ug/ml
# RNP (ribonucleoprotein) [15] = test: AtheNA, Ab 12.5 ug/ml
# SSA [16] = test: AtheNA, Ab 12.5 ug/ml
# Jo-1 [17] = target: Jo-1 (UniProt P12081); test: AtheNA, Ab 12.5 ug/ml
# Sm (Smith antigen) [18] = test: AtheNA, Ab 12.5 ug/ml
# Histones [19] = test: AtheNA, Ab 12.5 ug/ml
# CH505.M10D8gp120 [20] = test: ELISA
# CH505.M11D8gp120/293F [21] = test: ELISA
# CH505.M21D8gp120/293F [22] = test: ELISA
# CH505.M5D8gp120293F [23] = test: ELISA
# [24] = target: CH505.TF mutant gp120 M20 (HIV-1); test: ELISA
# [25] = target: CH505.TF mutant gp120 M8 (HIV-1); test: ELISA
# CH505.M9D8gp120/293F [26] = test: ELISA
# CH505.M19D8gp120 [27] = test: ELISA
# CH505.M7D8gp120/293F [28] = test: ELISA
# [29] = target: CH505.TF mutant gp120 M6 (HIV-1); test: ELISA
# Scl-70 [30] = target: Scl-70 (UniProt P11387); test: AtheNA, Ab 6.25 ug/ml
# SSB [31] = target: SSB (UniProt P05455); test: AtheNA, Ab 6.25 ug/ml
# Centromere B [32] = target: Centromere B (UniProt P07199); test: AtheNA, Ab 6.25 ug/ml
# RNP (ribonucleoprotein) [33] = test: AtheNA, Ab 6.25 ug/ml
# SSA [34] = test: AtheNA, Ab 6.25 ug/ml
# Jo-1 [35] = target: Jo-1 (UniProt P12081); test: AtheNA, Ab 6.25 ug/ml
# Sm (Smith antigen) [36] = test: AtheNA, Ab 6.25 ug/ml
# Histones [37] = test: AtheNA, Ab 6.25 ug/ml
# Scl-70 [38] = target: Scl-70 (UniProt P11387); test: AtheNA, Ab 25 ug/ml
# SSB [39] = target: SSB (UniProt P05455); test: AtheNA, Ab 25 ug/ml
# Centromere B [40] = target: Centromere B (UniProt P07199); test: AtheNA, Ab 25 ug/ml
# RNP (ribonucleoprotein) [41] = test: AtheNA, Ab 25 ug/ml
# SSA [42] = test: AtheNA, Ab 25 ug/ml
# Jo-1 [43] = target: Jo-1 (UniProt P12081); test: AtheNA, Ab 25 ug/ml
# Sm (Smith antigen) [44] = test: AtheNA, Ab 25 ug/ml
# Histones [45] = test: AtheNA, Ab 25 ug/ml
# Sequence of Scl-70 (P11387 whole entry): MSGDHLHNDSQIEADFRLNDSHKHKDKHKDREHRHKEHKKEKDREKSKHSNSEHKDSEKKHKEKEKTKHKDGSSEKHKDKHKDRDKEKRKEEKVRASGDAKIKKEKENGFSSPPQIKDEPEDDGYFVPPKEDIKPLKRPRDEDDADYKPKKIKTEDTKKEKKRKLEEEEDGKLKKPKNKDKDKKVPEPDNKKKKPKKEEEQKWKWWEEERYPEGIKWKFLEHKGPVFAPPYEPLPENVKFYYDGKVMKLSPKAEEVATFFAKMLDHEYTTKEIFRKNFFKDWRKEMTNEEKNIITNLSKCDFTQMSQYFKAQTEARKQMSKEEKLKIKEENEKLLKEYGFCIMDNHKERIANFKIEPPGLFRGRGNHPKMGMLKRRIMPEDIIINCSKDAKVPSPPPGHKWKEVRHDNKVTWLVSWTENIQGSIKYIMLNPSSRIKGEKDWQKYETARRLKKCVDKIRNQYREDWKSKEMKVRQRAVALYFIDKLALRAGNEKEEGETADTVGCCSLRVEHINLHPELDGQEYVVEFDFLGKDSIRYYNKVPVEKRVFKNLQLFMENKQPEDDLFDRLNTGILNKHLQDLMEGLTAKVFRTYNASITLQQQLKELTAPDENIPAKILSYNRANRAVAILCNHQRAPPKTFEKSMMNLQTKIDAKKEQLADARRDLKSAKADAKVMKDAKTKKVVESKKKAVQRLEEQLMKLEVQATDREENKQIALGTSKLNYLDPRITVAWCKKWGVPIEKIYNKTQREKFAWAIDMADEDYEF
# Sequence of Jo-1 (P12081 whole entry): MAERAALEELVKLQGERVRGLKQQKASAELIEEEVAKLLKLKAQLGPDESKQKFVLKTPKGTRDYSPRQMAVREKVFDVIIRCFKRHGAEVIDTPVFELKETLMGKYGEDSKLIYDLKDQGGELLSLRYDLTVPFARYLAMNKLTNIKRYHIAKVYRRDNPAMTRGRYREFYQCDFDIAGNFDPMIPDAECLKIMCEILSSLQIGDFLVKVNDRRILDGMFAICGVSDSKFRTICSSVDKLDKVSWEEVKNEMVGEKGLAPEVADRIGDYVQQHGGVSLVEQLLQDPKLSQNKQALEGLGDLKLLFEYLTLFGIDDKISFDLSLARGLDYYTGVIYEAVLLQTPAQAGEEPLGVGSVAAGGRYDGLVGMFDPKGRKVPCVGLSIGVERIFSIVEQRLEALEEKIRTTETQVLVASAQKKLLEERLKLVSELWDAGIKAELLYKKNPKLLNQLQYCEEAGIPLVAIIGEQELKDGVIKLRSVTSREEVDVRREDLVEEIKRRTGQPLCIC
# Sequence of Centromere B (P07199 whole entry): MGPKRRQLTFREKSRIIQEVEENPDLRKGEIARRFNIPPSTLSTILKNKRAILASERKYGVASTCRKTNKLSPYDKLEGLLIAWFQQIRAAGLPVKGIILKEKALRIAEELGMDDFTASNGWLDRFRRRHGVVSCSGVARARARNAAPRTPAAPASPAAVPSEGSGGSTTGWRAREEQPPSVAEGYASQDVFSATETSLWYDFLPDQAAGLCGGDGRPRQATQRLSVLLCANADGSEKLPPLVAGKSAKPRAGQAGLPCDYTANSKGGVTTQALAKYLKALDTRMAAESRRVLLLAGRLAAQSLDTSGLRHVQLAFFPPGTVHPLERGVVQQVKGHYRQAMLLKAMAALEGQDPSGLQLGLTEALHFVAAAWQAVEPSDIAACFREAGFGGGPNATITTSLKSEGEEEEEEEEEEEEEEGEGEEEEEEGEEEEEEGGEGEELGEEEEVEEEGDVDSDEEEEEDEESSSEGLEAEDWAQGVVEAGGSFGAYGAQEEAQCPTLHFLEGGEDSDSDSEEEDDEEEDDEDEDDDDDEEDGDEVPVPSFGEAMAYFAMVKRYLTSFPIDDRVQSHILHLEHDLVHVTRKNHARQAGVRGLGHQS
# Sequence of SSB (P05455 whole entry): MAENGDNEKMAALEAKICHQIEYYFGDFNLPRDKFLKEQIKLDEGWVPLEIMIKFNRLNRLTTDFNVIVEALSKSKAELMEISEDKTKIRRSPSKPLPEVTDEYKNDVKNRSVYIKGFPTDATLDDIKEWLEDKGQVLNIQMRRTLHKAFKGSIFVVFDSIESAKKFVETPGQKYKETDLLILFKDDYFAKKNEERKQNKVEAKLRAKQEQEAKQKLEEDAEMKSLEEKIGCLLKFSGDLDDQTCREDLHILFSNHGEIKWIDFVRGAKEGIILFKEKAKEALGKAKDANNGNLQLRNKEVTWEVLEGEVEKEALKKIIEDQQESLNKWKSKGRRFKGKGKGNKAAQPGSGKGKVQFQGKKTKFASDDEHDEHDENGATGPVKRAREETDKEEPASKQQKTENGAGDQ
substance,measurement,setting,value
CH103 (antibody),LogAUC,CH505.M10D8gp120 [1],13.2
same,LogAUC,CH505.M11D8gp120/293F [2],13.4
same,LogAUC,CH505.M21D8gp120/293F [3],11.4
same,LogAUC,CH505.M5D8gp120293F [4],9.84
same,LogAUC,[5],12.2
same,LogAUC,[6],11.5
same,LogAUC,CH505.M9D8gp120/293F [7],11.6
same,LogAUC,CH505.M19D8gp120 [8],13.3
same,LogAUC,CH505.M7D8gp120/293F [9],11.1
same,LogAUC,[10],13.1
CH103 UCA (antibody),LogAUC,CH505.M10D8gp120 [1],1.35
same,LogAUC,CH505.M11D8gp120/293F [2],2.62
same,LogAUC,CH505.M21D8gp120/293F [3],0
same,LogAUC,CH505.M5D8gp120293F [4],0
same,LogAUC,[5],0
same,LogAUC,[6],0
same,LogAUC,CH505.M9D8gp120/293F [7],0.12
same,LogAUC,CH505.M19D8gp120 [8],1.74
same,LogAUC,CH505.M7D8gp120/293F [9],0.44
same,LogAUC,[10],5.23
same,pKd,[11],6.64
same,kon,[11],37000 M⁻¹ s⁻¹
same,LogAUC,CH505w030.20D8gp120/293F,0
same,LogAUC,CH505w020.14D8gp120,0.33
same,LogAUC,CH505w136.B18D8gp120,0
same,LogAUC,CH0505_CON D7gp120/293i,4.3
same,LogAUC,CH505.w30.12D8gp120,0
CH104 (antibody),LogAUC,CH505.M10D8gp120 [1],11.7
same,LogAUC,CH505.M11D8gp120/293F [2],12
same,LogAUC,CH505.M21D8gp120/293F [3],11.2
same,LogAUC,CH505.M5D8gp120293F [4],9.02
same,LogAUC,[5],10.8
same,LogAUC,[6],10.1
same,LogAUC,CH505.M9D8gp120/293F [7],10.8
same,LogAUC,CH505.M19D8gp120 [8],11.3
same,LogAUC,CH505.M7D8gp120/293F [9],9.73
same,LogAUC,[10],11.6
CH235 IA3 (antibody),AtheNA signal (relative luminescence units),Scl-70 [12],3
same,AtheNA signal (relative luminescence units),SSB [13],6
same,AtheNA signal (relative luminescence units),Centromere B [14],15
same,AtheNA signal (relative luminescence units),RNP (ribonucleoprotein) [15],5
same,AtheNA signal (relative luminescence units),SSA [16],12
same,AtheNA signal (relative luminescence units),Jo-1 [17],3
same,AtheNA signal (relative luminescence units),Sm (Smith antigen) [18],12
same,AtheNA signal (relative luminescence units),Histones [19],7
same,LogAUC,CH505.M10D8gp120 [20],0.08
same,LogAUC,CH505.M11D8gp120/293F [21],0
same,LogAUC,CH505.M21D8gp120/293F [22],0
same,LogAUC,CH505.M5D8gp120293F [23],7.01
same,LogAUC,[24],0
same,LogAUC,[25],0
same,LogAUC,CH505.M9D8gp120/293F [26],0
same,LogAUC,CH505w030.20D8gp120/293F,1.16
same,LogAUC,CH505w020.14D8gp120,2.72
same,LogAUC,CH505w136.B18D8gp120,0
same,LogAUC,CH0505_CON D7gp120/293i,5.09
same,LogAUC,CH505.M19D8gp120 [27],0.11
same,LogAUC,CH505.w30.12D8gp120,0
same,LogAUC,CH505.M7D8gp120/293F [28],0
same,LogAUC,[29],2.96
same,AtheNA signal (relative luminescence units),Scl-70 [30],2
same,AtheNA signal (relative luminescence units),SSB [31],3
same,AtheNA signal (relative luminescence units),Centromere B [32],9
same,AtheNA signal (relative luminescence units),RNP (ribonucleoprotein) [33],4
same,AtheNA signal (relative luminescence units),SSA [34],12
same,AtheNA signal (relative luminescence units),Jo-1 [35],2
same,AtheNA signal (relative luminescence units),Sm (Smith antigen) [36],7
same,AtheNA signal (relative luminescence units),Histones [37],5
same,AtheNA signal (relative luminescence units),Scl-70 [38],4
same,AtheNA signal (relative luminescence units),SSB [39],9
same,AtheNA signal (relative luminescence units),Centromere B [40],27
same,AtheNA signal (relative luminescence units),RNP (ribonucleoprotein) [41],7
same,AtheNA signal (relative luminescence units),SSA [42],10
same,AtheNA signal (relative luminescence units),Jo-1 [43],8
same,AtheNA signal (relative luminescence units),Sm (Smith antigen) [44],13
same,AtheNA signal (relative luminescence units),Histones [45],12
CH235 IA4 (antibody),AtheNA signal (relative luminescence units),Scl-70 [12],2
same,AtheNA signal (relative luminescence units),SSB [13],3
same,AtheNA signal (relative luminescence units),Centromere B [14],5
same,AtheNA signal (relative luminescence units),RNP (ribonucleoprotein) [15],4
same,AtheNA signal (relative luminescence units),SSA [16],11
same,AtheNA signal (relative luminescence units),Jo-1 [17],3
same,AtheNA signal (relative luminescence units),Sm (Smith antigen) [18],6
same,AtheNA signal (relative luminescence units),Histones [19],6
same,pKd,[11],4.51
same,koff,[11],0.0881 s⁻¹
same,kon,[11],2900 M⁻¹ s⁻¹
same,LogAUC,CH505.M10D8gp120 [20],0.12
same,LogAUC,CH505.M11D8gp120/293F [21],0
same,LogAUC,CH505.M21D8gp120/293F [22],0
same,LogAUC,CH505.M5D8gp120293F [23],1.36
same,LogAUC,[24],0
same,LogAUC,[25],0
same,LogAUC,CH505.M9D8gp120/293F [26],0
same,LogAUC,CH505w030.20D8gp120/293F,0.24
same,LogAUC,CH505w020.14D8gp120,0
same,LogAUC,CH505w136.B18D8gp120,0
same,LogAUC,CH0505_CON D7gp120/293i,0
same,LogAUC,CH505.M19D8gp120 [27],0
same,LogAUC,CH505.w30.12D8gp120,0
same,LogAUC,CH505.M7D8gp120/293F [28],0
same,LogAUC,[29],0
same,AtheNA signal (relative luminescence units),Scl-70 [30],2
same,AtheNA signal (relative luminescence units),SSB [31],5
same,AtheNA signal (relative luminescence units),Centromere B [32],5
same,AtheNA signal (relative luminescence units),RNP (ribonucleoprotein) [33],3
same,AtheNA signal (relative luminescence units),SSA [34],11
same,AtheNA signal (relative luminescence units),Jo-1 [35],4
same,AtheNA signal (relative luminescence units),Sm (Smith antigen) [36],6
same,AtheNA signal (relative luminescence units),Histones [37],4
same,AtheNA signal (relative luminescence units),Scl-70 [38],2
same,AtheNA signal (relative luminescence units),SSB [39],4
same,AtheNA signal (relative luminescence units),Centromere B [40],10
same,AtheNA signal (relative luminescence units),RNP (ribonucleoprotein) [41],5
same,AtheNA signal (relative luminescence units),SSA [42],12
same,AtheNA signal (relative luminescence units),Jo-1 [43],2
same,AtheNA signal (relative luminescence units),Sm (Smith antigen) [44],12
same,AtheNA signal (relative luminescence units),Histones [45],9
CH235UA/293i (antibody),AtheNA signal (relative luminescence units),Scl-70 [12],3
same,AtheNA signal (relative luminescence units),SSB [13],4
same,AtheNA signal (relative luminescence units),Centromere B [14],3
same,AtheNA signal (relative luminescence units),RNP (ribonucleoprotein) [15],3
same,AtheNA signal (relative luminescence units),SSA [16],9
same,AtheNA signal (relative luminescence units),Jo-1 [17],5
same,AtheNA signal (relative luminescence units),Sm (Smith antigen) [18],6
same,AtheNA signal (relative luminescence units),Histones [19],4
same,AtheNA signal (relative luminescence units),Scl-70 [30],3
same,AtheNA signal (relative luminescence units),SSB [31],5
same,AtheNA signal (relative luminescence units),Centromere B [32],2
same,AtheNA signal (relative luminescence units),RNP (ribonucleoprotein) [33],2
same,AtheNA signal (relative luminescence units),SSA [34],10
same,AtheNA signal (relative luminescence units),Jo-1 [35],3
same,AtheNA signal (relative luminescence units),Sm (Smith antigen) [36],5
same,AtheNA signal (relative luminescence units),Histones [37],2
same,AtheNA signal (relative luminescence units),Scl-70 [38],3
same,AtheNA signal (relative luminescence units),SSB [39],3
same,AtheNA signal (relative luminescence units),Centromere B [40],3
same,AtheNA signal (relative luminescence units),RNP (ribonucleoprotein) [41],4
same,AtheNA signal (relative luminescence units),SSA [42],9
same,AtheNA signal (relative luminescence units),Jo-1 [43],5
same,AtheNA signal (relative luminescence units),Sm (Smith antigen) [44],6
same,AtheNA signal (relative luminescence units),Histones [45],3
